The values that follow come from patent KR20140116416A.

In the experiment the target is H5 hemagglutinin expressed on transfected cells (pJK2b-HA5) (influenza A virus, subtype H5; strain not stated). Put plainly: cell-based or functional assay.

B1: 항체 4D9 (antibody 4D9), purified (antibody, V domains shown)
VH: QVTLRESGPGLVKPSETLSLTCTISGASINTDYWSWIRQPPGKGLEWIGYIYYRGRTNYNPSLRSRVTISVDTSKNQFSLQMTSMTAADTAVYYCARDVTGISRENAFDIWGQGTLVTVSS
VL: AIRMTQSPSSLSASVGDRVTITCRASQSISGYLNWYQQKPGKAPKLLIYAASSLQSGVPSRFSGSGSGTDFTLTISSLQPEDFATYYCQQSYSIPTTFGQGTRLEIK
In turn, B1 displayed a cell fusion inhibition of 50 to 60%.
